Measured values from publication PMC10786891, “Massively parallel profiling of RNA-targeting CRISPR-Cas13d”.
Substitutions are numbered along the chain they refer to. In names and notes the source's numbering stands.

T1: EsCas13d, nuclease-dead (Eubacterium siraeum, UniProt B0MS50, R295A;H300A;R849A;H854A)
T1 sequence: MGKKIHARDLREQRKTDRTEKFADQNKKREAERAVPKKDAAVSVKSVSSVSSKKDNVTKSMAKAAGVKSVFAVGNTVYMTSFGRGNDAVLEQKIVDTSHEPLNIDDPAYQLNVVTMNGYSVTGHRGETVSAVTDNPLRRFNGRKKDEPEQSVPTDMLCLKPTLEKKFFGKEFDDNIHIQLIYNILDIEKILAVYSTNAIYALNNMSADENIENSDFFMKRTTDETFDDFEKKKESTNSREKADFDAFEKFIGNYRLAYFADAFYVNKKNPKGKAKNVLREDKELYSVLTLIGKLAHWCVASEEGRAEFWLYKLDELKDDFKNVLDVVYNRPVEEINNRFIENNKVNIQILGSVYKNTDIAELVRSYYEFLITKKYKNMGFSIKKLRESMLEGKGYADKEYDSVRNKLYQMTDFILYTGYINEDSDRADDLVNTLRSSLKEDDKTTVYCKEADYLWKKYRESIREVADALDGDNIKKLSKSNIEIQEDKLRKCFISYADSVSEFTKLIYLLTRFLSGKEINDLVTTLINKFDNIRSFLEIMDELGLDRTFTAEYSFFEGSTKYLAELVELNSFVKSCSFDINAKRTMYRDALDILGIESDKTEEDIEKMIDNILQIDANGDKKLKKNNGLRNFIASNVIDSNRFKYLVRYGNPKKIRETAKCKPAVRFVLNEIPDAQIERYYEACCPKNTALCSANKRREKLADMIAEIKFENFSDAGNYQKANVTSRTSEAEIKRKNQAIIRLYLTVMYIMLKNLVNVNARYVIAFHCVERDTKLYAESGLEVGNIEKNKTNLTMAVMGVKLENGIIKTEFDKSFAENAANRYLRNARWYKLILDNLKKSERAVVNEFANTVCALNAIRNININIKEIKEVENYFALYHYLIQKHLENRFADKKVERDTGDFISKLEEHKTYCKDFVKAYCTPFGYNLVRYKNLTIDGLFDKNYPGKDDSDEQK

B1: target 1 MT 5'PFS UAA 3'PFS UCU (mixed)
RNA 1: CACCCGUGCAAAAAUGCAGGGGUCUAAAACUGAGCGGAUAACCUCUCUAUGG
RNA 2: GGGAAUGGAUCCACAUCUACGAAUUCUAACCAUAGAGAGGUUAUCCGCUCAUCUAGAUCGGAAGAGCACACGU
B2: target 1 MT 5'PFS GUU 3'PFS UUU (mixed)
RNA 1: B1 RNA 1
RNA 2: B1 RNA 2 with U27G, A28U, A29U, C53U
B3: target 1 MT 5'PFS GCC 3'PFS UUC (mixed)
RNA 1: B1 RNA 1
RNA 2: B1 RNA 2 with U27G, A28C, A29C, C53U, U54C
B4: target 1 MT 5'PFS GGC 3'PFS CAU (mixed)
RNA 1: B1 RNA 1
RNA 2: B1 RNA 2 with U27G, A28G, A29C, U52C, C53A
B5: target 1 MT 5'PFS AGU 3'PFS ACG (mixed)
RNA 1: B1 RNA 1
RNA 2: B1 RNA 2 with U27A, A28G, A29U, U52A, U54G
B6: target 1 insG 3' of 22,insG 3' of 6 (mixed)
RNA 1: B1 RNA 1
RNA 2: GGGAAUGGAUCCACAUCUACGAAUUCGUACGCAUAGAGAGGUUAUCCGGCUCACCGAGAUCGGAAGAGCACACGU
B7: target 1 insU 3' of 14,insA 3' of 8 (mixed)
RNA 1: B1 RNA 1
RNA 2: GGGAAUGGAUCCACAUCUACGAAUUCGUACCAUAGAGAUGGUUAUACCGCUCACCGAGAUCGGAAGAGCACACGU
B8: target 1 MT 5'PFS AGU 3'PFS ACC (mixed)
RNA 1: B1 RNA 1
RNA 2: B1 RNA 2 with U27A, A28G, A29U, U52A, U54C
B9: target 1 MT 5'PFS GGC 3'PFS CAA (mixed)
RNA 1: B1 RNA 1
RNA 2: B1 RNA 2 with U27G, A28G, A29C, U52C, C53A, U54A
B10: target 1 MT 5'PFS CCA 3'PFS UGC (mixed)
RNA 1: B1 RNA 1
RNA 2: B1 RNA 2 with U27C, A28C, C53G, U54C
B11: target 1 MT 5'PFS AGU 3'PFS ACA (mixed)
RNA 1: B1 RNA 1
RNA 2: B1 RNA 2 with U27A, A28G, A29U, U52A, U54A
B12: target 1 MT 5'PFS GCC 3'PFS UUA (mixed)
RNA 1: B1 RNA 1
RNA 2: B1 RNA 2 with U27G, A28C, A29C, C53U, U54A
B13: target 1 MT 5'PFS GGG 3'PFS UAA (mixed)
RNA 1: B1 RNA 1
RNA 2: B1 RNA 2 with U27G, A28G, A29G, C53A, U54A
B14: target 1 MT 5'PFS GCU 3'PFS AUA (mixed)
RNA 1: B1 RNA 1
RNA 2: B1 RNA 2 with U27G, A28C, A29U, U52A, C53U, U54A
B15: target 1 MT 5'PFS UCA 3'PFS CGU (mixed)
RNA 1: B1 RNA 1
RNA 2: B1 RNA 2 with A28C, U52C, C53G
B16: target 1 insA 3' of 19,insA 3' of 7 (mixed)
RNA 1: B1 RNA 1
RNA 2: B6 RNA 2 with G31C, C32A, A33U, U34A, C47A, G48C
B17: target 1 MT 5'PFS GGG 3'PFS UAG (mixed)
RNA 1: B1 RNA 1
RNA 2: B1 RNA 2 with U27G, A28G, A29G, C53A, U54G
B18: target 1 MT 5'PFS GCC 3'PFS UUU (mixed)
RNA 1: B1 RNA 1
RNA 2: B1 RNA 2 with U27G, A28C, A29C, C53U
B19: target 1 MT 5'PFS UAA 3'PFS AUG (mixed)
RNA 1: B1 RNA 1
RNA 2: B1 RNA 2 with U52A, C53U, U54G
B20: target 1 MT 5'PFS UAG 3'PFS AGG (mixed)
RNA 1: B1 RNA 1
RNA 2: B1 RNA 2 with A29G, U52A, C53G, U54G
B21: target 1 MT 5'PFS GCU 3'PFS AUU (mixed)
RNA 1: B1 RNA 1
RNA 2: B1 RNA 2 with U27G, A28C, A29U, U52A, C53U
B22: target 1 MT 5'PFS CCA 3'PFS UGA (mixed)
RNA 1: B1 RNA 1
RNA 2: B1 RNA 2 with U27C, A28C, C53G, U54A
B23: target 1 MT 5'PFS UCA 3'PFS ACG (mixed)
RNA 1: B1 RNA 1
RNA 2: B1 RNA 2 with A28C, U52A, U54G
B24: target 1 MT 5'PFS UCA 3'PFS ACA (mixed)
RNA 1: B1 RNA 1
RNA 2: B1 RNA 2 with A28C, U52A, U54A
B25: target 1 MT 5'PFS UCC 3'PFS UGU (mixed)
RNA 1: B1 RNA 1
RNA 2: B1 RNA 2 with A28C, A29C, C53G
B26: target 1 MT 5'PFS UAA 3'PFS AUA (mixed)
RNA 1: B1 RNA 1
RNA 2: B1 RNA 2 with U52A, C53U, U54A
B27: target 1 MT 5'PFS GGG 3'PFS UAC (mixed)
RNA 1: B1 RNA 1
RNA 2: B1 RNA 2 with U27G, A28G, A29G, C53A, U54C
B28: target 1 MT 5'PFS GCC 3'PFS UUG (mixed)
RNA 1: B1 RNA 1
RNA 2: B1 RNA 2 with U27G, A28C, A29C, C53U, U54G
B29: target 1 MT 5'PFS AGU 3'PFS ACU (mixed)
RNA 1: B1 RNA 1
RNA 2: B1 RNA 2 with U27A, A28G, A29U, U52A
B30: target 1 MT 5'PFS GUU 3'PFS AUU (mixed)
RNA 1: B1 RNA 1
RNA 2: B1 RNA 2 with U27G, A28U, A29U, U52A, C53U
B31: target 1 C2G,U10G (mixed)
RNA 1: B1 RNA 1
RNA 2: B1 RNA 2 with U27G, A28U, U42G, C50G, U52C, U54G
B32: target 1 MT 5'PFS UCA 3'PFS ACU (mixed)
RNA 1: B1 RNA 1
RNA 2: B1 RNA 2 with A28C, U52A
B33: target 1 MT 5'PFS GGG 3'PFS UAU (mixed)
RNA 1: B1 RNA 1
RNA 2: B1 RNA 2 with U27G, A28G, A29G, C53A
B34: target 1 MT 5'PFS GCC 3'PFS CAG (mixed)
RNA 1: B1 RNA 1
RNA 2: B1 RNA 2 with U27G, A28C, A29C, U52C, C53A, U54G
B35: target 1 MT 5'PFS UCA 3'PFS CGA (mixed)
RNA 1: B1 RNA 1
RNA 2: B1 RNA 2 with A28C, U52C, C53G, U54A
B36: target 1 MT 5'PFS GGA 3'PFS CUU (mixed)
RNA 1: B1 RNA 1
RNA 2: B1 RNA 2 with U27G, A28G, U52C, C53U
B37: target 1 MT 5'PFS UGG 3'PFS CCG (mixed)
RNA 1: B1 RNA 1
RNA 2: B1 RNA 2 with A28G, A29G, U52C, U54G
B38: target 1 MT 5'PFS UAA 3'PFS AUC (mixed)
RNA 1: B1 RNA 1
RNA 2: B1 RNA 2 with U52A, C53U, U54C
B39: target 1 MT 5'PFS GGA 3'PFS CUG (mixed)
RNA 1: B1 RNA 1
RNA 2: B1 RNA 2 with U27G, A28G, U52C, C53U, U54G

Target: T1, EsCas13d, nuclease-dead
Assay: crRNA (strand 1, pre-loaded); Mg2+; 40 mM Tris-HCl pH 7.5, 150 mM NaCl, 6 mM MgCl2, 1 mM DTT, 0.1% Tween-20, 0.2 mg/ml BSA; 25 C; 10 min per concentration, then washed
Conditions: tags: His6-TwinStrep-SUMO cleaved; N-terminal SNAP kept (SNAP-Surface 488); label: 3' end held by stalled T7 RNA polymerase

Binder	Kd [nM]
B1	44.5 ± 15
B2	8.95 ± 0.95
B3	17 ± 5.5
B4	15.7 ± 5.5
B5	36 ± 10
B6	51 ± 10
B7	38.6 ± 3.2
B8	~80
B9	~34
B10	3.55 ± 0.8
B11	65 ± 29
B12	12.5 ± 3.7
B13	17.4 ± 2.8
B14	57 ± 16
B15	18.5 ± 6.5
B16	15.2 ± 1.4
B17	16.1 ± 2.1
B18	9.4 ± 2
B19	57.5 ± 16
B20	65.5 ± 15

Binder	Kd [nM]
B21	76 ± 31
B22	13 ± 4.5
B23	~65
B24	13.2 ± 3.35
B25	~70
B26	47 ± 13.5
B27	16.8 ± 2.75
B28	8.2 ± 1.1
B29	38 ± 11
B30	13.9 ± 2.3
B31	42 ± 7
B32	14 ± 4.5
B33	16.7 ± 3.25
B34	44 ± 21
B35	12.2 ± 3.45
B36	13 ± 4.5
B37	47 ± 9.5
B38	33 ± 10
B39	11.3 ± 1.9
